In patent publication US20060127985A1 (IMMUNEX, published 2006):

Key:
[1] = molecular target: T1, human 4-1BB ligand (4-1BB-L), cell surface (human, UniProt P41273 1-254); assay: slide autoradiography on transfected CV-1 cells
T1 construct: Native on the anti-CD3-stimulated PL1 (PL-1) T cell clone, the source of the cDNA; Recombinant full length on transfected CV-1/EBNA cells; also called hu4-1BB-L; clone 7A

[2] = molecular target: T2, murine 4-1BB ligand (4-1BB-L), cell surface (murine, UniProt P41274 1-309); assay: Scatchard analysis, 125I-4-1BB/Fc binding to EL4 6.1C10 cells
T2 construct: Native on EL4 6.1C10 and EL4 6.1 thymoma cells, the source of the cDNA; Recombinant full length on transfected COS and CV-1 cells; also called mu4-1BB-L; native surface mu4-1BB-L
T2 sequence: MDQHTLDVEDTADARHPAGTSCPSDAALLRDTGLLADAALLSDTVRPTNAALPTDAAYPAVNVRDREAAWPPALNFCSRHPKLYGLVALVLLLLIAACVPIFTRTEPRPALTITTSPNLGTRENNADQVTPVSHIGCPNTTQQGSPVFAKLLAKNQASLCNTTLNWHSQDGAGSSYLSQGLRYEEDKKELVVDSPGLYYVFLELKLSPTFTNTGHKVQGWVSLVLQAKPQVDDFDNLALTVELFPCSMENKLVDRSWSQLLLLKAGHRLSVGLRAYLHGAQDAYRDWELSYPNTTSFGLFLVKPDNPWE
Method: Several cell lines were screened for the ability to bind the radioiodinated murine 4-1BB/Fc fusion protein described in Example 1. Briefly, quantitative binding studies were performed according to standard methodology, and Scatchard plots were derived for the various cell lines. […] The EL4 6.1C10 cell line was derived from a subclone designated EL4 6.1 by using a cell sorter to enrich for a cell population expressing high levels of murine type I Interleukin-1 receptor, as described in U.S. Pat. No. 4,968,607. EL4 6.1 had been derived from a mouse thymoma cell line EL-4 (ATCC TIB39) as described by MacDonald et al. (J. Immunol. 135:3944, 1985) and Lowenthal and MacDonald (J. Exp. Med. 164:1060, 1986).

T1 sequence (P41273 whole entry): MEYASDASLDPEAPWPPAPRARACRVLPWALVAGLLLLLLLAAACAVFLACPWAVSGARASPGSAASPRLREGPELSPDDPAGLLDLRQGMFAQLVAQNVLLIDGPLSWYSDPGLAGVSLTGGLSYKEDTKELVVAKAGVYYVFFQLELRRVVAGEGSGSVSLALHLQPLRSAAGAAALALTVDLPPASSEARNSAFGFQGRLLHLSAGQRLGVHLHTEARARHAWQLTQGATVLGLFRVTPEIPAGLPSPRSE

B1: murine 4-1BB/Fc fusion protein (Fc fusion)
chain: VQNSCDNCQPGTFCRKYNPVCKSCPPSTFSSIGGQPNCNICRVCAGYFRFKKFCSSTHNAECECIEGFHCLGPQCTRCEKDCRPGQELTKQGCKTCSLGTFNDQNGTGVCRPWTNCSLDGRSVLKTGTTEKDVVCGPPVVSFSPSTTISVTPEEPRSCDKTHTCPPCPAPELLGGPSVFLFPPKPKDTLMISRTPEVTCVVVDVSHEDPEVKFNWYVDGVEVHNAKTKPREEQYNSTYRVVSVLTVLHQDWLNGKDYKCKVSNKALPAPMQKTISKAKGQPREPQVYTLPPSRDELTKNQVSLTCLVKGFYPRHIAVEWESNGQPENNYKTTPPVLDSDGSFFLYSKLTVDKSRWQQGNVFSCSVMHEALHNHYTQKSLSLSPGK
modifications: 125I-radioiodinated where used as tracer
notes: The murine IL-7 leader of the vector is cleaved on secretion; Fc is joined through the BglII site; also called mu4-1BB/Fc; soluble murine 4-1BB/Fc
[1]
  binding result: no binding
[2]
  Ka: ~2e+09 M⁻¹
